Measurements taken from the supplement of paper PMC9170038.

System: K4 kissing-loop RNA reporter
Assay: apparent KD of K4 kissing-loop reporter; higher = weaker reporter binding
Details: Eterna round: R107
Description: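 RNA-MaP round R107: designed RNA switches with theophylline, tryptophan, arginine or FMN aptamers are transcribed on-chip within common flanks. They are titrated with a labelled K4 kissing-loop RNA reporter in RNA-MaP buffer (100 mM Tris pH 7.5, 80 mM KCl, 4 mM MgCl2), without ligand or with the indicated ligand. Median apparent KD per design.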

[1] = input ligand: theophylline 20 uM
[2] = input ligand: tryptophan 2.4 mM
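Also: bound reporter read as fluorescence of individual clusters on recovered sequencing chips by microscopy, with normalized cluster intensities fitted with a binding model.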

Row | Sequence | apparent KD of K4 kissing-loop reporter (input ligand: FMN 200 uM) [nM] | apparent KD of K4 kissing-loop reporter (input ligand: arginine 13.2 mM) [nM] | apparent KD of K4 kissing-loop reporter (input ligand: none) [nM] | apparent KD of K4 kissing-loop reporter [1] [nM] | apparent KD of K4 kissing-loop reporter [2] [nM]
1 | GCUAUGGUAGGAAGGAGCGCUGCCUUGUUUUUACGAGUGAUGUUCGGAAGCAGGGCGUUAAAGCAGGUAGGUCGCCUACUAUAGC [Arginine B K4 22] | 220 | 135 | 152 | 147 | 146
2 | GCUAUGGUAGGAAGGAGCGCUUACUCGUUAAUAAGAGUGAUGUUCGAUAACGAGUAUUUAUAGCAGGUAGGUCGCCUACUAUAGC [Arginine B K4 4] | 207 | 193 | 168 | 242 | 199
3 | GGACGACAGUCGGCCGCCACUCACAGCCGAGUGAUGUUCGGGAUUGUAGCGGAGUGAUGUUUCGCGAGGACCGGGACUGCAGUCC [Same State Typtophan B GF 27] | 200 | 166 | 184 | 171 | 141
4 | GGACUACUAUGUCCCAUACAAACAAGAGAUACCAGCCAUCAUAGAGGCCCUUGGCAGCUCAUAUAAUCCAGUGAUGUUGGAUUUC [Beveus] | 150 | 193 | 163 | 136 | 132
5 | GGAGAGCGAAAAGGAUAUGCGUCCGUCAAAAUUAUGUAGCGCGGAAAAUGGUAGUGAUGUUGCAAAGCAGAAGGUUUCAGAUGUA [theeternabot_sameState_KL_FMN_B_43] | 260 | 259 | 450 | 519 | 216
6 | GGAGGAGAAUAUGAUACCAGCAGAGAGAGAGAGGAAGUAUAGUGAUGUUAUAUGUGAGAAUGCCCUUGGCAGCAUAACAUGAAGG [whbob_SS_Theo_B_sa90] | 288 | 193 | 211 | 454 | 159
7 | GGAGUUACCUGGGAUACCAGUCGGAGUCCCAGAGCUCGGAGUGAUGUUCUGGGAUGUUUCGGCCCUUGGCAGCUCUGGGACUCCC [#2 Exclusion - Theophylline B Attempt #9 (HarryS)] | 893 | 597 | 776 | 726 | 780
8 | GGAUAGGACACGGCCGCCACUACCGAGGAUACUCGAAACAUUUCCUCAGAUGAGUGAUGUUCAUCUAGGACCGGGUGUCCUAUCG [KL-XTryp-B19 #analogue] | 125 | 103 | 118 | 121 | 131
9 | GGAUAGGACAGAGGAUAUGGCAGUCUACAAAGUAGGCUGAAAUAAAUCCUUGAAUGGAGUGAUGUUCCAGAAGGCUGUCCUAUCG [FmnBX 23 #SwitchBubble #StaticStem #Palindromic] | 911 | 156 | 158 | 169 | 172
10 | GGAUAGGACAGAGGAUAUGGUAGCUAGGCAAGACAAAAGUCUUGUCUAGCAAUGAGGAGUGAUGUUCCAGAAGGCUGUCCUAUCG [FmnBX 4 - #SwitchBubble #StaticStem] | 753 | 350 | 442 | 387 | 270
11 | GGAUAGGACGGAGGAUAUGGUAGUGAUGUUACCAAACUGGUUAAACAUGUCAGAAAACUGGCAUGACCAGAAGGUUGUCCUAUCG [FmnBX 27 G10+U75] | 98.2 | 69 | 94.5 | 44.4 | 73.3
12 | GGAUAGGAUAGAGGAUAUGGAAAACACAGAAAUGACUUGUUGUGUUUAUCCAUAGGGAGUGAUGUUCCAGAAGGCUGUCCUAUCG [MatMod 21 - Jieux - Exclusion - FMN B] | 289 | 184 | 194 | 198 | 158
13 | GGAUAGGAUAGAGGAUAUGGCUUAUGCAGAAAUAACUUAUUGUGUAAAUCCAUAGGGAGUGAUGUUCCAGAAGGCUGUCCUAUCG [MatMod 16 - Jieux - Exclusion - FMN B] | 821 | 218 | 235 | 224 | 202
14 | GGAUCCUAGGCGGCCGCCACUCCAAUUGGCCGAAAGGCCUGAUACCGAGUGAUGUUCGGUUGGAGGAGGACCGGGCCUAGGAUCC [#2 Exclusion - Tryptophan B Attempt #2 (HarryS)] | 144 | 132 | 118 | 165 | 104
15 | GGAUUCGGCGCGGCCGCCACUUCCGGUGGCUGGUGUCAUGGUGCGCGUGAGUGAUGUUUAUGUGGGAGGACCGGGCGUUGAGUCC [whbob_Ex_Tryp_B_w45] | 577 | 322 | 767 | 441 | 305
16 | GGCACGUUCCCUUGAUCAGUGAUGUUGUUUCGAGGACCGGUACGGCCGCCACUCGCUCGGCGUUCGCCCAGGCCCGGAAAACUGC [theeternabot_exclusion_KL_Trp_A_13] | 241 | 207 | 224 | 217 | 225

Row | Sequence | apparent KD of K4 kissing-loop reporter (input ligand: FMN 200 uM) [nM] | apparent KD of K4 kissing-loop reporter (input ligand: arginine 13.2 mM) [nM] | apparent KD of K4 kissing-loop reporter (input ligand: none) [nM] | apparent KD of K4 kissing-loop reporter [1] [nM] | apparent KD of K4 kissing-loop reporter [2] [nM]
17 | GGCCGCAAGGCGAGCGCUCCCACUCCGGAAGGAGCGCCCGCAAGGGCAGGUAGGUCGCCGGAGUGAUGUUCCGGUGGAGGGCUCG [#2 Exclusion - Arginine A Attempt #16 (Inspired by Omei)] | 398 | 271 | 369 | 127 | 338
18 | GGCCGGAAGGCGAGCGCUCCCACUCCGGAAGGAGCGCCCGUAAGGGCAGGUAGGUCGCCGGAGUGAUGUUCCGGUGGAGGGCUCG [#2 Exclusion - Arginine A Attempt #21 (Inspired by Omei)] | 165 | 106 | 180 | 302 | 186
19 | GGCGGCUGCGCGCAAGCGCAGCCGGCCGAUACCAGCGCGACGGCGCGCCCUUGGCAGCGGCGCCGAGUGAUGUUCGGCCUGCCGU [#2 Same State - Theophylline A Attempt #22 (HarryS)] | 113 | 98.1 | 129 | 149 | 141
20 | GGCGUCAAACCAGAACUAGUGAUGUUGGUUCGAGGACCGGUACGGCCGCCACUCGAUCUCUUGGUCCAUCGCGGAAGGGCAGCGG [theeternabot_exclusion_KL_Trp_A_29] | 511 | 369 | 532 | 414 | 622
21 | GGGAGAAGUGCGGCCGCCACUGAGAAAGAAGAAGAAUAUAGUGAUGUUAUAUAGGAAAGGAAGAACAGGACCGGGCAUAAGAGGG [SSTryptB.A] | 104 | 148 | 126 | 131 | 99.1
22 | GGGAGGAGUGGUGUUGAUUAGGGAGCGGAAGGAGCGCCGAAGAAGGCAGGUAGGUCGCCGGAAUAUAGUGAUGUUAUAUAGAGGG [ExArg.G] | 304 | 211 | 270 | 168 | 201
23 | GGGAGGAUUAAAUAAAUAAAUAAGAUAGAUACCAGUUGAGAGUAAGGCCCUUGGCAGCUAAAACGAGUGAUGUUCGAGUAAAUCC [Default title] | 81.6 | 88.8 | 63 | 147 | 62.4
24 | GGGAGUAGUGCGGCCGCCACUGAGAAAGAAGAAGAAUAUAGUGAUGUUAUAUAGGAAUAAAAGAACAGGACCGGGCAUUAGAUUU [SSTRyptB.T] | 263 | 239 | 255 | 196 | 167
25 | GGGCUGGUGCUAGGAUAUGCGAUGAAUGCUCAGGAAACCUUGAGUCCGCAGUGAUGUUGCGGCACCGCAGAAGGAGCUUAGGCUC [Esbequ] | 146 | 263 | 222 | 292 | 172
26 | GGGUCUGCGCGAAGGAGCGCCCUGACAGGUUGCUGCCGUGGGCAGUGAUGUUGCUCAGUCCGGCAGGUAGGUCGCGUGCAGACCC | 135 | 161 | 176 | 169 | 160
27 | GGUAGCAUGGCGGCCGCCACUAAGAGAGUGAUGUUCUCUUAGUUUUUUGAUAUAUUAUCAAUUCUUAGGACCGGGCCAUGCUACC | 121 | 79.9 | 94.7 | 98.9 | 100
28 | GGUAGCAUGGCGGCCGCCACUACAAGUAGUGACCCAAGUGAUGUUUGGAAGCGGGUCCUAAUUGGUAGGACCGGGCCAUGCUACC | 509 | 502 | 496 | 401 | 566
29 | GGUAGCAUGGCGGCCGCCACUUUUUUAGAUACCUACACAGAAAGCAGUGAUGUUGCUUGGUGGUAAAGGACCGGGCCAUGCUACC | 149 | 131 | 136 | 137 | 105
30 | GGUAUCUAUACAGAUACCAGUCGUACAGCACCAUUACAGGUUAGUGAUGUUAACCUGUACGACCCUUGGCAGCUGUAUUAUAAUA [#15 K4 Theophylline B Exclusion] | 94.3 | 88.7 | 86.8 | 91.4 | 85.2
31 | GGUCGAGUGAUGUUCGAUGUAGUGCAUUCAGAGGAUAUAGGAUUGGCUAGAAGGCUGAAACCUUCUUCGAGUGAUGUUCGAGGAU [Same State FMN A GF5] | 130 | 83.8 | 112 | 90.1 | 77.8
